This test concerns the target T1, Mmm1-SOG (miniSOG fused to the cytosolic face of Mmm1) (S. cerevisiae), P41800.
T1 chain: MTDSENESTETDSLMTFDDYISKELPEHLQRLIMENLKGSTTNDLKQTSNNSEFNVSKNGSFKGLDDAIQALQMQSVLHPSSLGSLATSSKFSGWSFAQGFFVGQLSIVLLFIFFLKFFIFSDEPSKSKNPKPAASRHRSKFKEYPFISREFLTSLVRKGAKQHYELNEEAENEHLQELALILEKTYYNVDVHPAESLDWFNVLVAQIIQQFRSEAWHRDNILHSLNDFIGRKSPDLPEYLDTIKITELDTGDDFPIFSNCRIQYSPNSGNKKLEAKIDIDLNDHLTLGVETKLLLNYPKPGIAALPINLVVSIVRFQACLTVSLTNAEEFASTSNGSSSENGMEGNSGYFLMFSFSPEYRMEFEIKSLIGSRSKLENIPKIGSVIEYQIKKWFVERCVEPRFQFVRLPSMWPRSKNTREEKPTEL
In words: singlet oxygen triplet energy transfer. Particulars: remark: other sources report otherwise.

B1: Mdm34-SOS (IFP1.4 fused to the cytosolic face of Mdm34), P53083 1-459 (natural protein)
chain: MSFRFNEAVFGDNSFNERIREKLSTALNSPSKKKLDILKSGIKVQKVDFPTIPQLEILDLDIITQPKSLAKGICKISCKDAMLRIQTVIESNLLLINEQDTPSFTMPQLINNGSFTIPITMTFSSIELEAITNIFVKNPGIGISFNDVDLDFKFDCSVKILQSTIERRLKESMHVVFKDVLPSLIFNTSQNWFTNRGESTSTIPGKREHHHQQTTMSRNVILDGSDFQELSPINMLRLSSIVSSRSTLSLHSTVMNSLSAIPGCLERQNLYRFISRMPSLNNYYSSQSFPQPKSSTVSSKQLVKPFYCSHNLLPKTVLDSSQYDLATITKIQSRLFDRSNSNDDNAKPRRRKIKCKKTRTPSNLQSQGEQAVDDSTAIETVTSTPVQTPIPELEEQSPPYLKTTVSIRDKYVIPEKISLNLDSKKDTSKKKPFYFIGLNSQEPSNNWKWGMEDSPPPYH
Take B1: the STET signal came out at 0.082 s⁻¹.

B2: SOS-Mdm34 (IFP1.4 fused to the N-terminus of Mdm34, facing the intermembrane space), P53083 1-459 (natural protein)
chain: MSFRFNEAVFGDNSFNERIREKLSTALNSPSKKKLDILKSGIKVQKVDFPTIPQLEILDLDIITQPKSLAKGICKISCKDAMLRIQTVIESNLLLINEQDTPSFTMPQLINNGSFTIPITMTFSSIELEAITNIFVKNPGIGISFNDVDLDFKFDCSVKILQSTIERRLKESMHVVFKDVLPSLIFNTSQNWFTNRGESTSTIPGKREHHHQQTTMSRNVILDGSDFQELSPINMLRLSSIVSSRSTLSLHSTVMNSLSAIPGCLERQNLYRFISRMPSLNNYYSSQSFPQPKSSTVSSKQLVKPFYCSHNLLPKTVLDSSQYDLATITKIQSRLFDRSNSNDDNAKPRRRKIKCKKTRTPSNLQSQGEQAVDDSTAIETVTSTPVQTPIPELEEQSPPYLKTTVSIRDKYVIPEKISLNLDSKKDTSKKKPFYFIGLNSQEPSNNWKWGMEDSPPPYH
Take B2: the STET signal was 0.052 s⁻¹.

Source of the values: article PMC4091638.
